# Data reported in paper PMC7513893 (Redox Biology, 2020).
# B1: Thioredoxin-1 (Trx-1), recombinant (enzyme, human, UniProt P10599 1-105, looked up)
# chain: MVKQIESKTAFQEALDAAGDKLVVVDFSATWCGPCKMIKPFFHSLSEKYSNVIFLEVDVDDCQDVASECEVKCMPTFQFFKKGQKVGEFSGANKEKLEATINELV
# Key:
# [1] = biological target: ADAM17 cytoplasmic domain, wild type (ADAM17cyto^WT), recombinant (UniProt P78536 693-824); assay: ELISA
# [2] = biological target: ADAM17 cytoplasmic domain mutant F730A (ADAM17cyto^F730A), recombinant (UniProt P78536 693-824, F730A); assay: ELISA
# Chain of ADAM17 cytoplasmic domain mutant F730A (ADAM17cyto^F730A), recombinant (P78536 693-824 F730A): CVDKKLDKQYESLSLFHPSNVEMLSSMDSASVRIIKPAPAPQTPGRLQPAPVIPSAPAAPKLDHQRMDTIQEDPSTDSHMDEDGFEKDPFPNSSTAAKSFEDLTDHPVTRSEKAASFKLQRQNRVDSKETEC
# Chain of ADAM17 cytoplasmic domain, wild type (ADAM17cyto^WT), recombinant (P78536 693-824): as the sequence (P78536 693-824 F730A) above, with A38F counted along it
binder,measurement,setting,value
B1,binding result,[1],binds
same,binding result,[2],binds
